The target of test [1] is T1, human PACAP38 (human, not fully specified; C-terminal lysine is amidated; N-terminal or C-terminal biotin in the HTRF and PC-12 cell binding assays).
T1 construct: synthetic peptide, bought; also called huPACAP (1-38)
T1 peptide: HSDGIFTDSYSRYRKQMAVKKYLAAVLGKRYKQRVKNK
In words: SPR, Ab immobilised. The method, then:
(§1) Binding affinities of monoclonal antibodies for human PACAP were estimated using SPR on the PROTEON™ XPR36 (Bio-Rad, Hercules, Calif.). Antibody was immobilized to the surface of general amine coupling (“GLC” or “GLM”) Chips (Bio-Rad, Hercules, Calif.). A dilution series of human PACAP38 (SEQ ID NO: 1241) prepared in 1×PBST Buffer (4.3 mM Na Phosphate, 1.4 mM K Phosphate, 135 mM NaCl, 2.7 mM KCl 0.05% Polysorbate-20) purchased from Teknova (Cat# P1192, Teknova, Hollister, Calif.) and supplemented with 0.25 M arginine (from J.T. BAKER®), 0.2 mg/ml BSA (Jackson Immuno Research Labs, West Grove, Pa.), and 0.005% sodium azide (VWR International, Radnor, Pa.) with the pH adjusted to 7 was used to query the antibodies. Antigen (ranging from 1.23 nM to 100 nM) was typically run sequentially with association times of 2-4 minutes and dissociation times of 3-120 minutes grouped with the PROTEON™ Manager Software (v3.1.0.6 (Bio-Rad, Hercules, Calif.)) and fitted using a 1:1 Langmuir binding model. Surfaces were regenerated between analyte queries using 0.85% Phosphoric Acid.
For orientation: SPR reads the build-up and loss of mass on a sensor chip optically.

For test [2], the target named is T2, human PACAP27 (human, C-terminal leucine is amidated; 125I-labelled in Example 10).
T2 peptide: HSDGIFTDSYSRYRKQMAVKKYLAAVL
Put plainly: SPR, Ab immobilised. As for the experimental part:
[The procedure below names another target; the source says it served here with some conditions changed.] as §1

The target of test [3] is T3, human VIP (human).
T3 construct: also called Vasoactive Intestinal Peptide
T3 peptide: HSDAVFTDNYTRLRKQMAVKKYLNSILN
Put plainly: SPR, Ab immobilised. As for the experimental part:
[The procedure below names another target; the source says it served here with some conditions changed.] as §1

Test [4] has as its target T1, human PACAP38. Put plainly: cell-based or functional assay.
The target in test [5] is T2, human PACAP27. Put plainly: cell-based or functional assay.
The target in test [6] is T1, human PACAP38. In words: cell-based or functional assay.
Test [7] concerns the target T1, human PACAP38. Put plainly: cell-based or functional assay.
Test [8] concerns the target T1, human PACAP38. Put plainly: HTRF binding, biotin-PACAP38. As for the experimental part: In parallel, 10 μl of an antibody dilution series (highest final concentration of 100 nM) were incubated with 10 μl of N-terminal or C-terminal biotinylated PACAP38 (35 nM final) alone, or in combination with either PACAP27 (350 nM final) or VIP (350 nM final), i.e., 10× PACAP27 or 10×VIP, respectively, in a HTRF plate. 20 μl of Eu³⁺ cryptate labeled anti-hu Fc donor and 20 μl of d2-labeled streptavidin acceptor were added to each well and incubated for 1 hour at room temperature. Fluorescence was measured at 620 and 665 nm with a delay of 300 μsec.
EC₅₀ values, i.e. the concentration of an antibody that yields a response halfway between the baseline and the maximum value within a specified time period, were computed for each antibody based upon their binding curves and are shown in Table 1 below. […] A humanized form of antibody Ab1 was produced and is identified by an appended “.H”, i.e., Ab1.H, and it also bound PACAP38 with high affinity.
On the technique in general: TR-FRET usually uses a lanthanide donor and a delayed reading to cut background.

Test [9] addresses T1, human PACAP38. In words: inhibition of 100 nM biotin-PACAP38 binding to PC-12 cells, TRF. The method, then: To identify antibodies that block PACAP38 binding to PAC1-R-expressing cells, adherent PC-12 cells (ATCC, Manassas, Va.) expressing PAC1-R were used in a Europium-based PAC1-R expressing cells binding assay.
Antibody solutions were incubated with N-terminal biotinylated PACAP38 at 10× the final concentration (100 nM or 30 nM) for 1 hr, then added to PC-12 cells that were plated 24 hrs. prior in black clear bottom 96 well plates (COSTAR™, Corning Incorporated, Corning, N.Y.) and further incubated for 1 hr at room temperature. After three washes, the cells were incubated with 20 μl Europium-labeled streptavidin (PerkinElmer, Waltham, Mass.) for 1 hr at room temperature. Cells were washed three times, then 20 μl DELFIA® Enhancement solution (PerkinElmer, Waltham, Mass.) was added to each well and incubated for 15 minutes with gentle shaking. Plates were read (Time Resolved Fluorescence (“TRF”)) on SPECTRAMAX® (Molecular Devices, Sunnyvale, Calif.) plate reader.
FIGS. 14A-14BB are representative of the inhibition curves obtained by this method (results are shown for Ab1, Ab2, Ab3, Ab4, Ab5, Ab6, Ab7, Ab8, Ab9, Ab10, Ab11, Ab12, Ab13, Ab14, Ab15, Ab16, Ab17, Ab18, Ab19, Ab1.H, Ab10.H, Ab22, Ab23, Ab3.H, Ab4.H, Ab5.H, Ab9.H, and Ab12.H, respectively) wherein the PAC1-R expressing cells were PC-12 cells.

What is called Kd is the concentration at which binding is half-saturated. A lower Kd goes with a tighter complex. One may read the koff as the first-order rate constant of dissociation. Higher therefore signals fast dissociation. A word on the kon: it is a measure of how fast the partners come together. High values mean faster complex formation, low ones slower complex formation. Usually EC50 stands for the concentration at which the effect is half-maximal. As a reminder, the IC50 is the point on the concentration scale where inhibition reaches its midpoint. A lower IC50 goes with greater potency in that assay.

B1: anti-PACAP antibody Ab16 (antibody, human IgG1, kappa, N297A, V domains shown)
VH: QSVEESGGRLVTPGTPLTLTCTVSGFSLSSAAMSWVRQAPGKGLEWIGIIDDSGNTYYASWAKARFTISKTSSTTVDLKMTSPTTEDTATYFCARGGGEFFIWGPGTLVTVSS
VL: DPVLTQTPSSVSAAVGGTVTINCQSSQSVYNNKWLSWYQQKPGQSPKFLIYQASNLASGVPSRFKGSGSGTQFTLTISDLECDDGATYYCAGGYRGNVCGFGGGTEVVVKR
notes: full-length rabbit/human chimeric antibody
As to B1, in test [1], the Kd was ≤ 0.011 nM, the koff is ≤ 1e-05 s⁻¹ and the kon was 910000 M⁻¹ s⁻¹. Further, in test [2], the dissociation constant Kd came out at 0.035 nM, the off-rate constant (koff) is 2.9e-05 s⁻¹ and the kon is 820000 M⁻¹ s⁻¹. In addition, in [3], binding was characterised by a dissociation constant (Kd) of 260 nM, the koff is 0.096 s⁻¹ and the kon amounted to 360000 M⁻¹ s⁻¹. Also, the “IC50, 0.1 nM PACAP38-induced PAC1-R mediated cAMP increase” value in [4] was found to be 0.212 nM. The “IC50, 0.1 nM PACAP27-induced PAC1-R mediated cAMP increase” value in [5] was 0.192 nM. Further, in test [6], the “IC50, 5 nM PACAP38-induced human VPAC1-R mediated cAMP increase” value came to 3.53 nM. The “IC50, 1 nM PACAP38-induced human VPAC2-R mediated cAMP increase” value in test [7] was 1.15 nM. The EC50 in test [8] amounted to 0.68 nM. This molecule also gave an IC50 in [9] of 27.3 nM.

B2: anti-PACAP antibody Ab17 (antibody, human IgG1, kappa, N297A, V domains shown)
VH: QSVEESGGRLVTPGTPLTLTCTVSGFSLSSAAMNWVRQAPGKGLEWIGIFDPYSSTYYASWAKGRFTISKTSSTTVDLKMTSPTTEDTATYFCARGGGEFFIWGPGTLVTVSS
VL: AQVLTQTPSSVSAAVGGTVTINCQSSQSVYKNKYLSWYQQKVGQPPKFLIYQASNLASGVPSRFKGSGSGTQFTLTISDLECDDAATYYCAGGYSGNMVDFGGGTEVVVKR
notes: as for B1
In the case of B2, in [1], the dissociation constant (Kd) is ≤ 0.02 nM, the koff was ≤ 1e-05 s⁻¹ and the kon was 500000 M⁻¹ s⁻¹. Also, in test [2], the Kd was ≤ 0.027 nM, the koff was ≤ 1e-05 s⁻¹ and the kon was 370000 M⁻¹ s⁻¹. In test [3], this molecule gave a Kd of 55 nM, a koff of 0.017 s⁻¹ and a kon of 310000 M⁻¹ s⁻¹. Moreover, the “IC50, 0.1 nM PACAP38-induced PAC1-R mediated cAMP increase” value in test [4] turned out to be 0.0977 nM. The “IC50, 0.1 nM PACAP27-induced PAC1-R mediated cAMP increase” value in test [5] came to 0.0776 nM. For the same molecule, in test [6], the “IC50, 5 nM PACAP38-induced human VPAC1-R mediated cAMP increase” value is 0.78 nM. The “IC50, 1 nM PACAP38-induced human VPAC2-R mediated cAMP increase” value in [7] amounted to 0.205 nM. For the same molecule, the EC50 in test [8] worked out at 0.46 nM. Also, the half-maximal inhibitory concentration (IC50) in [9] was 33.1 nM.

B3: anti-PACAP antibody Ab18 (antibody, human IgG1, kappa, N297A, V domains shown)
VH: QSVEESGGRLVTPGTPLTLTCTVSGFSLSSAALSWVRQAPGKGLEWIGIIDKGVMSYYASWAKGRFTISKTSSTTVDLKVTSPTTEDTATYFCARGGGEFFIWGQGTLVTVSS
VL: AQVLTQTPSSVSAAVGGTVTINCQSSKSVYNNNWLSWYQQKPGQPPKFLIYQASNLASGVPSRFKGSGSGTQFTLTISDLECDDAATYYCAGGYSGNIVGFGGGTEVVVKR
notes: as for B1
On to B3, for which, in [1], the Kd was ≤ 0.023 nM, the off-rate (koff) is ≤ 1e-05 s⁻¹ and the association rate constant (kon) was found to be 430000 M⁻¹ s⁻¹. In addition, in test [2], the equilibrium dissociation constant (Kd) was ≤ 0.023 nM, the off-rate (koff) is ≤ 1e-05 s⁻¹ and the kon is 440000 M⁻¹ s⁻¹. Moreover, in test [3], the Kd was 400 nM, the koff was determined as 0.12 s⁻¹ and the kon was determined as 310000 M⁻¹ s⁻¹. Moreover, in [4], the “IC50, 0.1 nM PACAP38-induced PAC1-R mediated cAMP increase” value is 0.118 nM. The “IC50, 0.1 nM PACAP27-induced PAC1-R mediated cAMP increase” value in test [5] worked out at 0.0916 nM. Besides, the “IC50, 5 nM PACAP38-induced human VPAC1-R mediated cAMP increase” value in test [6] came to 0.911 nM. The “IC50, 1 nM PACAP38-induced human VPAC2-R mediated cAMP increase” value in test [7] was 0.285 nM. In addition, the EC50 in test [8] turned out to be 0.48 nM. The molecule also returned an IC50 in test [9] of 30.6 nM.

B4: anti-PACAP antibody Ab15 (antibody, human IgG1, kappa, N297A, V domains shown)
VH: QSVEASGGHLVTPGTPLTLTCTVSGFSLSSAAMNWVRQAPGKGLEWIGSVDERQNKYYASWAKGRFTISRTSSTTVNLKMTSPTTEDTATYFCARGGGEFFIWGQGTLVTVSS
VL: AQVLTQTPSSVSAAVGGTVTINCQSSQSVYSNNRLSWYQQKPGQPPNLLIYEASSLASGVPSRFSGSGSGTQFTLTISDLECDDAATYYCAGAYNTGIYGFGGGTEVVVKR
notes: as for B1
On to B4, for which, in test [1], the Kd is 0.05 nM, the koff came to 2.7e-05 s⁻¹ and the on-rate (kon) came to 530000 M⁻¹ s⁻¹. For the same molecule, in [2], the dissociation constant Kd was 0.17 nM, the off-rate constant (koff) worked out at 7.8e-05 s⁻¹ and the kon amounted to 470000 M⁻¹ s⁻¹. In test [3], this molecule displayed a dissociation constant (Kd) of 820 nM, a koff of 0.13 s⁻¹ and a kon of 160000 M⁻¹ s⁻¹. The “IC50, 0.1 nM PACAP38-induced PAC1-R mediated cAMP increase” value in test [4] was 0.162 nM. The “IC50, 0.1 nM PACAP27-induced PAC1-R mediated cAMP increase” value in test [5] was determined as 0.155 nM. Further, in test [6], the “IC50, 5 nM PACAP38-induced human VPAC1-R mediated cAMP increase” value was 3.71 nM. In addition, the “IC50, 1 nM PACAP38-induced human VPAC2-R mediated cAMP increase” value in [7] worked out at 22.9 nM. In addition, the concentration for a half-maximal effect (EC50) in [8] was determined as 0.62 nM. This molecule showed an IC50 in test [9] of 36.7 nM.

B5: anti-PACAP antibody Ab19 (antibody, human IgG1, kappa, N297A, V domains shown)
VH: QSVEASGGRLVTPGTPLTLTCTVSGFSLSSATMNWVRQAPGKGLEWIGLIGGNDERYYASWAKGRFTISKTSSTTVDLKMTSPTTEDTATYFCARGGGEFFIWGPGTLVTVSS
VL: AQVLTQTPSSVSAAVGGTVTINCQSSESVYTNDRLSWYQQKPGQPPKLLIYEASKLASGVPPRFSGSGSGTQFTLTISDLECDDAATYYCAGAYSTSIHGFGGGTEVVVKR
notes: as for B1
For the molecule B5, in [1], the affinity, expressed as Kd, was 0.093 nM; the koff came to 2.5e-05 s⁻¹; the kon was found to be 270000 M⁻¹ s⁻¹. Further, in test [2], the dissociation constant (Kd) is 0.31 nM, the koff is 0.00013 s⁻¹ and the on-rate constant (kon) was found to be 420000 M⁻¹ s⁻¹. In [3], the affinity, expressed as Kd, was 1000 nM; the off-rate constant (koff) was found to be 0.28 s⁻¹; the kon came to 280000 M⁻¹ s⁻¹. In test [4], the “IC50, 0.1 nM PACAP38-induced PAC1-R mediated cAMP increase” value was 0.101 nM. The “IC50, 0.1 nM PACAP27-induced PAC1-R mediated cAMP increase” value in test [5] was 0.0874 nM. Also, in test [6], the “IC50, 5 nM PACAP38-induced human VPAC1-R mediated cAMP increase” value was found to be 0.827 nM. The “IC50, 1 nM PACAP38-induced human VPAC2-R mediated cAMP increase” value in test [7] worked out at 0.954 nM. In [8], the concentration giving a half-maximal response (EC50) was 0.43 nM. This molecule displayed a half-maximal inhibitory concentration (IC50) in test [9] of 162 nM.

For the origin of these results see US20190233498A1 (H LUNDBECK A S, published 2019).
